Measured values: patent US20260226133A1
Values belong to the binder of their own block, whether it stands above or below them.

Legend:
CD33 = CD33 (UniProt P20138); test: Malibu-Glo assay; NLuc fusion supernatant on HL60 cells, control Jurkat cells
CD22 = CD22 (UniProt P20273); test: Malibu-Glo assay; NLuc fusion supernatant on RAJI cells, control K562 cells
CD22, sequence (P20273 20-847 limits assumed): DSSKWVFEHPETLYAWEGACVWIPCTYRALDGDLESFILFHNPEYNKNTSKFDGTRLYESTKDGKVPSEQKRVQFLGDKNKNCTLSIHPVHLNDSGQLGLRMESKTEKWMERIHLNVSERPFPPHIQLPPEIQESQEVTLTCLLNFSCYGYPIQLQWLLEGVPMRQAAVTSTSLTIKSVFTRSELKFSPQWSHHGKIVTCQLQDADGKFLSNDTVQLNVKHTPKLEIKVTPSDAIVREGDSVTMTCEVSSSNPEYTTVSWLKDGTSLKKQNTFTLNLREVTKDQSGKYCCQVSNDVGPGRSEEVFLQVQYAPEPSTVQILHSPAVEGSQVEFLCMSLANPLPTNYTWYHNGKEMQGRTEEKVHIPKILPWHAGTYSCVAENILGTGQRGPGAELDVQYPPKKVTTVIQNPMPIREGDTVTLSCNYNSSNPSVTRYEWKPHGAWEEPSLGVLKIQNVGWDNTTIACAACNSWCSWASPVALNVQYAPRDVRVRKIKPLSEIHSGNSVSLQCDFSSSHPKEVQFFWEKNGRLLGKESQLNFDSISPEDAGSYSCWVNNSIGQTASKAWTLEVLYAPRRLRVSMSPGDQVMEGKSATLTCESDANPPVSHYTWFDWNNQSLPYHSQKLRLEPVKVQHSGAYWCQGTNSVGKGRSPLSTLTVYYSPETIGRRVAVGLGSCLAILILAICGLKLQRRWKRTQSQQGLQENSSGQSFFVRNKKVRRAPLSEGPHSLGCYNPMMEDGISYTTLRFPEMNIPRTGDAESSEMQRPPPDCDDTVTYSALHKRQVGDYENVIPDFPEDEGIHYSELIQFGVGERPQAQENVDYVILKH

CD33, sequence (P20138 18-364 limits assumed): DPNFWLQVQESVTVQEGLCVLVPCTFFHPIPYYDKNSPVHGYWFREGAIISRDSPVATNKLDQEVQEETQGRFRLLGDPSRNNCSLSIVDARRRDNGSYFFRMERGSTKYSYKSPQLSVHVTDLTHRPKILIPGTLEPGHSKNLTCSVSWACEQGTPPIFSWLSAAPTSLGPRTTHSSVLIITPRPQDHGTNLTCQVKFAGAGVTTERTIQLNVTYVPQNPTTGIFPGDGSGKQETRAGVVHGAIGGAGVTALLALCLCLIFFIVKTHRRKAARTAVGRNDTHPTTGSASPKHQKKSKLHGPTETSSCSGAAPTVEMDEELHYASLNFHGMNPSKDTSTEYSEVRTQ

Fold Change (Luc activity, target cell line over control cell line) (CD33): 17 fold
B1: hA873-G30S vHH (CD33), NLuc fusion (VHH, part only; not given: NLuc luciferase fusion partner, part only)
VHH, part: QVQLVESGGGVVQPGRSLRLSCVASGYTYSINCMGWFRQAPGKGREGIAAISTGGGTTGVADSVKGRFTISQDNAKNTVYLQMNSLRAEDTAMYYCAARSTYSGYACVYSEVNGYNYRGQGTQVTVSS

Fold Change (Luc activity, target cell line over control cell line) (CD22): 4.32 fold
B2: hu-077-USC1 vHH (CD22), NLuc fusion (VHH, part only; not given: NLuc luciferase fusion partner, part only)
VHH, part: QVQLQESGPGLVKPSQTLSLTCTVSGGSITTGEFYWNWFRQPPGKGLEWMGAIAASGSTTYSPSFESRTSISRDTSKNQFSLKLSSVTAADTAVYYCGRSFGVAAVTTGQNRGQGTLVTVSS
